Laboratory results: paper PMC8117670 (Science (New York, N.Y.), 2021)
Each block holds one binder with its values, some of them ahead of it.

Assays:
Assay in all cases: cryo-EM structure
[1] = molecular target: T1, Med23 (human, UniProt Q9ULK4 1-1368)
T1 sequence: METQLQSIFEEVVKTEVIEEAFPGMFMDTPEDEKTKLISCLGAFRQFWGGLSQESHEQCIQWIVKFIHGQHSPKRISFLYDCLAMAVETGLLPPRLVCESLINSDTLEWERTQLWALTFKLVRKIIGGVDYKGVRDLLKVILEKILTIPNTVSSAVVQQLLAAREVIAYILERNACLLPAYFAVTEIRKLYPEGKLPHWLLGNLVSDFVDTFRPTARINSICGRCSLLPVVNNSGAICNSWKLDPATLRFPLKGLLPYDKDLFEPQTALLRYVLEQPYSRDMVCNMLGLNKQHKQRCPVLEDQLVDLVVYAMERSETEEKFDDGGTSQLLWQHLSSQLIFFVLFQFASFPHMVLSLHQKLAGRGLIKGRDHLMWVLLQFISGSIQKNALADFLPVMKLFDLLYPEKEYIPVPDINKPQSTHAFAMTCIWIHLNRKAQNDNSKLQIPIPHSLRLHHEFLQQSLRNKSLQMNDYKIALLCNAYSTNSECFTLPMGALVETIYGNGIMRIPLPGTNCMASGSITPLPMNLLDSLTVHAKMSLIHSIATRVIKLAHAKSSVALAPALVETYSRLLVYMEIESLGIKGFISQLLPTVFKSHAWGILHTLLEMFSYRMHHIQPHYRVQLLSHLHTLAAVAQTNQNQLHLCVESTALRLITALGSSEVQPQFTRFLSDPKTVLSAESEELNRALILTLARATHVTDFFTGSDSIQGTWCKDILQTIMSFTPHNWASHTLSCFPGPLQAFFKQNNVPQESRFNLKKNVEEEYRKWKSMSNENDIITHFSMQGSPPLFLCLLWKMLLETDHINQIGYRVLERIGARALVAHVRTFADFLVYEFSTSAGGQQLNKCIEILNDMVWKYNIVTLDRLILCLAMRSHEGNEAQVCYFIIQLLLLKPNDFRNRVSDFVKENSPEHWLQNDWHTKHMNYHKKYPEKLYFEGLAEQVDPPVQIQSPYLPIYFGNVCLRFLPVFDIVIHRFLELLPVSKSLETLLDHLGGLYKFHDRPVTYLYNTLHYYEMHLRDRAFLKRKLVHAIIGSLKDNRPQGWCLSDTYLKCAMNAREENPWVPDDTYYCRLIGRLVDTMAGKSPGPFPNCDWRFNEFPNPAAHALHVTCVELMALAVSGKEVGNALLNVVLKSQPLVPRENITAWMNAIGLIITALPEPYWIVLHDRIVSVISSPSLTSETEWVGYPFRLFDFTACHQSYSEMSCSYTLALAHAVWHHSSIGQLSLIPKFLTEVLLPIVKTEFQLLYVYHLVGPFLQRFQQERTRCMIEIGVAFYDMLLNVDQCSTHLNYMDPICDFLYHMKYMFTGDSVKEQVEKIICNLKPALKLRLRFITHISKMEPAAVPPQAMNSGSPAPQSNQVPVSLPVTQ

[2] = molecular target: Med1 (human, UniProt Q15648 1-1581)
Sequence of Med1 (Q15648 whole entry): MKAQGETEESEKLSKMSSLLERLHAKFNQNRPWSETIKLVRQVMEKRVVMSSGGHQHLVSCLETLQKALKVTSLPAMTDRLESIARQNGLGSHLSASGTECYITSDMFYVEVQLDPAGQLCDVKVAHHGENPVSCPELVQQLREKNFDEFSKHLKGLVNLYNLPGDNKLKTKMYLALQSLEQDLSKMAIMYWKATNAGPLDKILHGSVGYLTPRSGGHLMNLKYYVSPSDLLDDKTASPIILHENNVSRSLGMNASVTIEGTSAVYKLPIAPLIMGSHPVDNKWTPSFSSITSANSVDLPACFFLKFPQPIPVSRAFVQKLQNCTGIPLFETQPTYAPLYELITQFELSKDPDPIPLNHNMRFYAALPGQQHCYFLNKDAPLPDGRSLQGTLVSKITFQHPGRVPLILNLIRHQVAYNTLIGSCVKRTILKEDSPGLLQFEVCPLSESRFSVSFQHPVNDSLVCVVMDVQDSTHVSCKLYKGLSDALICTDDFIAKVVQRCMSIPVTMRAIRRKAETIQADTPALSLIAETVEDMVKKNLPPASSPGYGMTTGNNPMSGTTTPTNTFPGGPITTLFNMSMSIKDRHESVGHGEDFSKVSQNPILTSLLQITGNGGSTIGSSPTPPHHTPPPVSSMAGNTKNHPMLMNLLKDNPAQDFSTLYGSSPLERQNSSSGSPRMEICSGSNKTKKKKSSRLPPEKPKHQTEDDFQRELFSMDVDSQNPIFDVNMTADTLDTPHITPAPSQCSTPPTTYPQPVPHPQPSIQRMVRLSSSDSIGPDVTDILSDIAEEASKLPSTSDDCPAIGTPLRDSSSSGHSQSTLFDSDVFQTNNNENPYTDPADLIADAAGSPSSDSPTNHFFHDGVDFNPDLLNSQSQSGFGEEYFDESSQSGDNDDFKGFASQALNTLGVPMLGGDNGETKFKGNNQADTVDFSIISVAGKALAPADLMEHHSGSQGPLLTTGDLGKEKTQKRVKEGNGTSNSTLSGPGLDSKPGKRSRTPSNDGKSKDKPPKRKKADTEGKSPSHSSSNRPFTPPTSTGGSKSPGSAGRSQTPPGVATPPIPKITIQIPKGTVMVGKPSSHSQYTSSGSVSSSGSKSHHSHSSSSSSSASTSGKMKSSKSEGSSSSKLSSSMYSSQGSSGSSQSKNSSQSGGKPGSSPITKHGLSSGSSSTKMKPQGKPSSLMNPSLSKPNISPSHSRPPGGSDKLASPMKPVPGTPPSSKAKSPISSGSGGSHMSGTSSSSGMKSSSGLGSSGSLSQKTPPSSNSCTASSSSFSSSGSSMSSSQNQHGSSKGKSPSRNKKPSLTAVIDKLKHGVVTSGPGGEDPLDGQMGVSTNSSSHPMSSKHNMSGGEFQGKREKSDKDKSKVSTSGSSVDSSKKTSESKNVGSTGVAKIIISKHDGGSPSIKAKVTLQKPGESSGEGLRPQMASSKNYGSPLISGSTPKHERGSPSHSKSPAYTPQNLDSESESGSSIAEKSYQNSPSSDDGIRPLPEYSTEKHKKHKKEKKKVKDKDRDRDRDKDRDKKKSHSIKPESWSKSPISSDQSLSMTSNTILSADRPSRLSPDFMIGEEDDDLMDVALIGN

[3] = molecular target: RPB1, the largest subunit of RNA polymerase II (human, UniProt P24928 1-1970)
[4] = molecular target: Med14 (human, UniProt O60244 1-1454)
Sequence of Med14 (O60244 whole entry): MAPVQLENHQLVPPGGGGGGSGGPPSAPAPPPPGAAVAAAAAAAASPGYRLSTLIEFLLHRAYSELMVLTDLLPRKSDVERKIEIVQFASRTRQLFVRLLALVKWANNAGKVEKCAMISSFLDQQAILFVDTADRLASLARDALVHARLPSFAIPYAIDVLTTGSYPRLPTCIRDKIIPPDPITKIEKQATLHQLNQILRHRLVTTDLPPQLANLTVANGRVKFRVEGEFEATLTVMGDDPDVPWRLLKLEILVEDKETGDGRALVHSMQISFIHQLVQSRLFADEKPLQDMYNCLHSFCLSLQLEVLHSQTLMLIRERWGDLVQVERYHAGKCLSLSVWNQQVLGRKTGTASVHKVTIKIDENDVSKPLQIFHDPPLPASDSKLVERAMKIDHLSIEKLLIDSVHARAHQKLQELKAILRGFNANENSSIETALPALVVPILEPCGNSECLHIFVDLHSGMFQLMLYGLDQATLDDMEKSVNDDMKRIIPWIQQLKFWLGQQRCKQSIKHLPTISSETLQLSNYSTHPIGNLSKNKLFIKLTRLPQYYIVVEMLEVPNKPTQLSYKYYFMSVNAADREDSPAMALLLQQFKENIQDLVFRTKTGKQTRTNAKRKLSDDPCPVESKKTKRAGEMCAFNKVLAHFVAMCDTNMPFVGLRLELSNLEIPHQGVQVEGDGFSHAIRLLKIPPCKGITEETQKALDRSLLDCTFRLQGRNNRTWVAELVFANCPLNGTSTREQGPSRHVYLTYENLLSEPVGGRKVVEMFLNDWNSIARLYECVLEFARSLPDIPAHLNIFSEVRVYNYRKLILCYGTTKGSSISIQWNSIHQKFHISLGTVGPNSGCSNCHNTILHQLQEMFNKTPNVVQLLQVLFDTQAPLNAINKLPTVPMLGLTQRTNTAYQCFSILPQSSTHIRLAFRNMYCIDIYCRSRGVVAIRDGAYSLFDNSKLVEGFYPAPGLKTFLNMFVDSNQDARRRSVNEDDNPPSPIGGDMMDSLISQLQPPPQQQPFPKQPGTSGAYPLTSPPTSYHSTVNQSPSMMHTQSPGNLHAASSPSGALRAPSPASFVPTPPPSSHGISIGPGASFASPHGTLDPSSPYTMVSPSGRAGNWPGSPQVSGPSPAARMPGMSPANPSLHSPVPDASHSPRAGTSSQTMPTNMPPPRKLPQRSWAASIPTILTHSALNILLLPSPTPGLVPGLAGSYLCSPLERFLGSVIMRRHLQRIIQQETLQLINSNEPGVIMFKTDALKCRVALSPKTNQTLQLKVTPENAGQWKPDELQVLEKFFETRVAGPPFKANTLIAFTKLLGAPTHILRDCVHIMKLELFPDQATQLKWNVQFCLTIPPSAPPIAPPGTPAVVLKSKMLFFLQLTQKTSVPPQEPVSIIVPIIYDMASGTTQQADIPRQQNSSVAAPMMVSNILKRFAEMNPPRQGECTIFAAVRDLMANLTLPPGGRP

binding result [1]: binds
B1: Med25 (natural protein, human)
chain: MVPGSEGPARAGSVVADVVFVIEGTANLGPYFEGLRKHYLLPAIEYFNGGPPAETDFGGDYGGTQYSLVVFNTVDCAPESYVQCHAPTSSAYEFVTWLDGIKFMGGGGESCSLIAEGLSTALQLFDDFKKMREQIGQTHRVCLLICNSPPYLLPAVESTTYSGCTTENLVQQIGERGIHFSIVSPRKLPALRLLFEKAAPPALLEPLQPPTDVSQDPRHMVLVRGLVLPVGGGSAPGPLQSKQPVPLPPAAPSGATLSAAPQQPLPPVPPQYQVPGNLSAAQVAAQNAVEAAKNQKAGLGPRFSPITPLQQAAPGVGPPFSQAPAPQLPPGPPGAPKPPPASQPSLVSTVAPGSGLAPTAQPGAPSMAGTVAPGGVSGPSPAQLGAPALGGQQSVSNKLLAWSGVLEWQEKPKPASVDANTKLTRSLPCQVYVNHGENLKTEQWPQKLIMQLIPQQLLTTLGPLFRNSRMVQFHFTNKDLESLKGLYRIMGNGFAGCVHFPHTAPCEVRVLMLLYSSKKKIFMGLIPYDQSGFVNGIRQVITNHKQVQQQKLEQQQRGMGGQQAPPGLGPILEDQARPSQNLLQLRPPQPQPQGTVGASGATGQPQPQGTAQPPPGAPQGPPGAASGPPPPGPILRPQNPGANPQLRSLLLNPPPPQTGVPPPQASLHHLQPPGAPALLPPPHQGLGQPQLGPPLLHPPPAQSWPAQLPPRAPLPGQMLLSGGPRGPVPQPGLQPSVMEDDILMDLI

binding result [2]: binds
B2: Med24 (natural protein, human)
chain: MKVVNLKQAILQAWKERWSDYQWAINMKKFFPKGATWDILNLADALLEQAMIGPSPNPLILSYLKYAISSQMVSYSSVLTAISKFDDFSRDLCVQALLDIMDMFCDRLSCHGKAEECIGLCRALLSALHWLLRCTAASAERLREGLEAGTPAAGEKQLAMCLQRLEKTLSSTKNRALLHIAKLEEASSWTAIEHSLLKLGEILANLSNPQLRSQAEQCGTLIRSIPTMLSVHAEQMHKTGFPTVHAVILLEGTMNLTGETQSLVEQLTMVKRMQHIPTPLFVLEIWKACFVGLIESPEGTEELKWTAFTFLKIPQVLVKLKKYSHGDKDFTEDVNCAFEFLLKLTPLLDKADQRCNCDCTNFLLQECGKQGLLSEASVNNLMAKRKADREHAPQQKSGENANIQPNIQLILRAEPTVTNILKTMDADHSKSPEGLLGVLGHMLSGKSLDLLLAAAAATGKLKSFARKFINLNEFTTYGSEESTKPASVRALLFDISFLMLCHVAQTYGSEVILSESRTGAEVPFFETWMQTCMPEEGKILNPDHPCFRPDSTKVESLVALLNNSSEMKLVQMKWHEACLSISAAILEILNAWENGVLAFESIQKITDNIKGKVCSLAVCAVAWLVAHVRMLGLDEREKSLQMIRQLAGPLFSENTLQFYNERVVIMNSILERMCADVLQQTATQIKFPSTGVDTMPYWNLLPPKRPIKEVLTDIFAKVLEKGWVDSRSIHIFDTLLHMGGVYWFCNNLIKELLKETRKEHTLRAVELLYSIFCLDMQQVTLVLLGHILPGLLTDSSKWHSLMDPPGTALAKLAVWCALSSYSSHKGQASTRQKKRHREDIEDYISLFPLDDVQPSKLMRLLSSNEDDANILSSPTDRSMSSSLSASQLHTVNMRDPLNRVLANLFLLISSILGSRTAGPHTQFVQWFMEECVDCLEQGGRGSVLQFMPFTTVSELVKVSAMSSPKVVLAITDLSLPLGRQVAAKAIAAL

binding result [2]: binds
B3: Med4 (natural protein, human)
chain: MAASSSGEKEKERLGGGLGVAGGNSTRERLLSALEDLEVLSRELIEMLAISRNQKLLQAGEENQVLELLIHRDGEFQELMKLALNQGKIHHEMQVLEKEVEKRDSDIQQLQKQLKEAEQILATAVYQAKEKLKSIEKARKGAISSEEIIKYAHRISASNAVCAPLTWVPGDPRRPYPTDLEMRSGLLGQMNNPSTNGVNGHLPGDALAAGRLPDVLAPQYPWQSNDMSMNMLPPNHSSDFLLEPPGHNKENEDDVEIMSTDSSSSSSESD

binding result [3]: binds
B4: Med31 (natural protein)
chain: MAAAVAMETDDAGNRLRFQLELEFVQCLANPNYLNFLAQRGYFKDKAFVNYLKYLLYWKDPEYAKYLKYPQCLHMLELLQYEHFRKELVNAQCAKFIDEQQILHWQHYSRKRMRLQQALAEQQQQNNTSGK

binding result [4]: binds
B5: Med17 (natural protein, human)
chain: MSGVRAVRISIESACEKQVHEVGLDGTETYLPPLSMSQNLARLAQRIDFSQGSGSEEEEAAGTEGDAQEWPGAGSSADQDDEEGVVKFQPSLWPWDSVRNNLRSALTEMCVLYDVLSIVRDKKFMTLDPVSQDALPPKQNPQTLQLISKKKSLAGAAQILLKGAERLTKSVTENQENKLQRDFNSELLRLRQHWKLRKVGDKILGDLSYRSAGSLFPHHGTFEVIKNTDLDLDKKIPEDYCPLDVQIPSDLEGSAYIKVSIQKQAPDIGDLGTVNLFKRPLPKSKPGSPHWQTKLEAAQNVLLCKEIFAQLSREAVQIKSQVPHIVVKNQIISQPFPSLQLSISLCHSSNDKKSQKFATEKQCPEDHLYVLEHNLHLLIREFHKQTLSSIMMPHPASAPFGHKRMRLSGPQAFDKNEINSLQSSEGLLEKIIKQAKHIFLRSRAAATIDSLASRIEDPQIQAHWSNINDVYESSVKVLITSQGYEQICKSIQLQLNIGVEQIRVVHRDGRVITLSYQEQELQDFLLSQMSQHQVHAVQQLAKVMGWQVLSFSNHVGLGPIESIGNASAITVASPSGDYAISVRNGPESGSKIMVQFPRNQCKDLPKSDVLQDNKWSHLRGPFKEVQWNKMEGRNFVYKMELLMSALSPCLL

binding result [2]: binds
B6: Med9 (natural protein, human)
chain: MASAGVAAGRQAEDVLPPTSDQPLPDTKPLPPPQPPPVPAPQPQQSPAPRPQSPARAREEENYSFLPLVHNIIKCMDKDSPEVHQDLNALKSKFQEMRKLISTMPGIHLSPEQQQQQLQSLREQVRTKNELLQKYKSLCMFEIPKE
